Test results from PMC12502629, “The NagY antiterminator in Enterococcus faecalis: a novel regulatory mechanism and its impact on cell metabolism” (Microbiology Spectrum, 2025).

T1: NagY antiterminator (Enterococcus faecalis, UniProt Q834W3 1-277)
T1 construct: NagY transcriptional antiterminator of Enterococcus faecalis, encoded by nagY (ef1515); source: E. coli M15 pRep4 pQE70-nagY, purified (HisTrap HP)
T1 sequence (looked up): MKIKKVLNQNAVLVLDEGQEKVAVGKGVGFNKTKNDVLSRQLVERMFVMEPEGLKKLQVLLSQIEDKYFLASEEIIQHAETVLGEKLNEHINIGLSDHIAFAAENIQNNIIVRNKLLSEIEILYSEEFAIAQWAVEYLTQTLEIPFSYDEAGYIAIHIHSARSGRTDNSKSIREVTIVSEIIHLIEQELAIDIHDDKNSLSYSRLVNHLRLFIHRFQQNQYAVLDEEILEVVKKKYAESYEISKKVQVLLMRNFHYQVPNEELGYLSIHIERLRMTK

B1: RNase III (fluorescence-labeled, RNase III*) (enzyme, Enterococcus faecalis, UniProt Q82ZG1 1-230, looked up)
chain: MDNQLTTELKERYGIVFHDVNLLEQAFTHSSYVNEHRYLKLSDNERLEFLGDAVLELIVSQYLYLKFPELPEGKLTKMRAAIVREDSLAKFAKECHFDNYILLGKGEEASGGRTRASLLCDLFEAFLGALYLDQKVGAAKKFIEDVIFPKIDAGAFSHEMDHKTQLQEVLQRKGDVSIEYRLIKEEGPAHDRTFFTEVYMNGELIGLGQGKSKKLAEQDAAERALKSIPQ
modifications: Cys-labeled with Red-Maleimide 2nd Generation dye (degree of labeling 0.1 fluorescent tags per protein unit)
notes: RNase III of Enterococcus faecalis, a 26.2 kDa protein encoded by the rnc gene (ef3097); also called ribonuclease RNase III; rnc gene product; source: E. coli M15 pRep4 pQE30-rnc, purified (HisTrap HP)

Key:
[1] = system: RNase III (RNase III*);NagY (Enterococcus faecalis V19?;Enterococcus faecalis V19?); experiment: spectral shift (Monolith X); details: RNase III* pre-incubated with NagY (8.5e-6 M), then RNA titrated; 1 mM MgCl2; ES-T buffer: 10 mM Tris pH 8.0, 40 mM NaCl, 10 mM KCl, 1 mM MgCl2, 0.05% Tween-80; room temperature (5 min pre-incubation); RNase III* stock 5e-8 M …
NagY antiterminator = target: T1, NagY antiterminator; experiment: other fluorescence titration; spectral shift (670 nm/650 nm) on Monolith X; RNase III* Cys-labeled at 50·10^-9 M, NagY serially diluted 5.2·10^-10 to 1.7·10^-5 M; ES-T buffer pH 8.0 (10 mM Tris, 40 mM NaCl, 10 mM KCl, 1 mM MgCl2, 0.05% Tween-80); independent triplicates; details: both partners purified

| Molecule | Kd [1] | Kd (NagY antiterminator) |
| --- | --- | --- |
| 5' nagY RNA | 580 nM |  |
| B1 |  | 2500 nM |
